Test: yeast display, Sf9 membrane polyspecificity reagent, FACS + sequencing; frameworks hold sequencing errors
Procedure, shortened: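 In a synthetic yeast display library (Saccharomyces cerevisiae BJ5465), nanobody expression was induced with galactose for 36–48 hours. FACS gates were set low and high (top ~1%) using anti-HA fluorescence for expression and streptavidin fluorescence for binding of the Sf9 membrane reagent. Each polyreactivity label is drawn from the gate of origin.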

Sequence	polyreactivity (PSR sort gate)
QVQLVESGGGLVQAGGRLRLSCAASGSIFHYNAMGWYRQAPGKESELVAAITTSGGSTYYADSVKGRFTISLDNAKNSVYLQMNSLKPEDTAVYYCNVVTRYYTMEYWGQGTQVTVSS	high polyreactivity
QVQLVESGGGLVQAGGRLRLSCAASGSIFPFYAMGWYRQAPGKERELVAAISDRGGSTYYADSVKGRFTISRDNAKNTVYLQMISLKPEDTAVYYCAKGGEVSQGYTDEYDYWGQGTQVTVSS	low polyreactivity
QVQLVESGGGLVQAGGRLRLSCAASGSIFQFYAMGWYRQAPGKERELVAAINWSGGSTYYADSVKGRFTISRDNAKNTVYLQMNSLKPEETAVYYCNALRRIGRYYKAGGYGYWGQGTQVTVSS	high polyreactivity
QVQLVESGGGLVQAGGRLRLSCAASGSIFRLYAMGWYRQAPGKEREFVAGITRRTGSTYYADSVKGRFTISRDNAKNTVNLQMNSLKPEDTAVYYCAKRDARATPFGYWGQGTQVTVSS	high polyreactivity
QVQLVESGGGLVQAGGRLRLSCAASGSIFRRYAMGWYRQAPGKERELVAAISSKGGSTYYADSVKGRFTISRDNAKNTVYLQMNSLKPEDTAVYYCNAQLVHYRFSSVFTYTIDDYWGQGTQVTVSS	high polyreactivity
QVQLVESGGGLVQAGGRLRLSCAASGSIFRWYAMGLYRQAPGKERELVAAITSGGSTYYADSVKGRFTISRDNAKNCVYLQMNSLKPEDTAVYYCNAKTYYPPFGYWGQGTQVTVSS	low polyreactivity
QVQLVESGGGLVQAGGRLRLSCAASGSIFYNYAMGWYRQAPGKERELVAAITRSGGSTYYADSVKGRFTISRDNAKNTVYLQMNSLKPEDTAVYYCAARYPFGSLGRYGYWGQGTQVTVSS	high polyreactivity
QVQLVESGGGLVQAGGRLRLSCAASGSIIISNGMGWSRQAPGKERELVATISWIGGSTYYADSVKGRFTISRDNAKNTVYLQMNSLKPEDTAVYYCAADVVLARPFEGDYWGQGTQVTVSS	low polyreactivity
QVQLVESGGGLVQAGGRLRLSCAASGSIYDDYAMGWNRQAPGKEREFVAAIDYSGGSTYYADSVKGRFTISRDNAKNTVYFQKNSLKPEDTAVYYCAKEAITRTFQYRHDYWGQGTQVTVSS	low polyreactivity
QVQLVESGGGLVQAGGRLRLSCAASGSTFGANAMGWYRQAPGKEREFVAAISRSGVRTYYADSVKGRFTISRDNAKNTVFLQMNSLKPEDTAVYYCAADGYWWTDTRYDYCGQGTQVTVSS	low polyreactivity
QVQLVESGGGLVQAGGRLRLSCAASGSTFPKYAMGWYRQAPGKERELVASISVTTGSTYYADSVKGRFTISRDNAKNTVYLQMNSLKPEDTAVYYCAKRTYSRKFRGAYNYWGQGTQVTVSS	high polyreactivity
QVQLVESGGGLVQAGGRLRLSCAASGSTFQQYGMGWYRQAPGKERELVAAISGGVSTYYADSLKGLFTISRDHAKNTVYLQMYSLKPEDTAVYYCNADTSYSEWGSWYYEYDYWGQGTQVTVSS	low polyreactivity
QVQLVESGGGLVQAGGRLRLSCAASGSTFRYYAMGWYRQAPWKERELVAAISSTGTRTYYADSVKGRFTISRDNAKNTVYLQMNSLKPEDTAVSYCAADYVRYATRYDYWGQGTQVTVSS	high polyreactivity
QVQLVESGGGLVQAGGRLRLSCAASGSTFSYYAMGWYRQAPGKEREMVAAISRTGGSTYYADSVKGRCTISRDNAKNTVYLQMNSLKAEDTAFYYCNARAPVGTFDYDYWGQGTQVTVSS	low polyreactivity
QVQLVESGGGLVQAGGRLRLSCAASGSTFTDYAMGWYRQAPRKERELVASITSGGRTNYADSVKGRFTITRDNAKNTVYLQMNSLKPEDTAVYYCAADYSVPTSQAYDYWGQGTQVTVSS	low polyreactivity
QVQLVESGGGLVQAGGRLRLSCAASGSTFYNYAMGWYRQAPGKERELVASIPWNGGSTYYADSVKGRFTISRDNAKNTVYLQMNSLKPEDTAVYYCAADWTWTYPYDYWGQGTQVTVSS	low polyreactivity
QVQLVESGGGLVQAGGRLRLSCAASGSTFYSNAMGWYRQAPGKERELVASIRFSGVITTYADSVKGRFTISRDNAKNTVYLQMNSLKPEDTAVYYCDAGYLSTTAYDYWGQGTQVTVSS	low polyreactivity
QVQLVESGGGLVQAGGRLRLSCAASGSTIRLYAKGWYRQAPGKERELVAAISVSGGSTHYADSVKGRFTISRDNAKNTVYLQMNSLKPEDTAVYYCNAAGNPVSRYHYDYWGQGTQVTVSS	high polyreactivity
QVQLVESGGGLVQAGGRLRLSCAASGTIFDFYAMGWYRQAPGKERELVATITASGGSTYYADSVKGRFTISRDNAKNTVYLQMKSLKPEDTAVYYCAAVGPHWYGQGWALYRFEYWGQGTQVTVSS	low polyreactivity
QVQLVESGGGLVQAGGRLRLSCAASGYIFSYYAMAWYRQAPGKERELVASITSSGGSTYYADSVKGRFTISRDNAKNTVYLQMNSLKPEVTAVSYCAAYSLYGYDYWGQGTQVTVSS	low polyreactivity
QVQLVESGGGLVQAGGRLRLSCAASGYTFTHYAMGLYRQAPVKESELVASIRNSGSRTYYADSVKGRFTISPDNAKNTVYLQLNSLKPEDTAVYYCAAKTTTPYRYIYYYWGQGTQVTVSS	high polyreactivity
QVQLVESGGGLVQAGGRLRLSCAASLYIYGGYGMGWYRKAPGKERELVAVITSSVSTDYADSVKGSFTISRDNAKNTVYLQMKSLKPEDTAVYYSSADFLWYIYNIGTSLEFEYWGQGTQVTVSS	low polyreactivity

Sequence	polyreactivity (PSR sort gate)
QVQLVESGGGLVQAGGRLRLSCAASVRILGKYAMGWYRQAPGKERELVAAIRLRGGSTYYADSVKGRFTISRDNAKNTVYLQMNSLKPEDTAVYYCAARYWDRSQAYYYWGQGTQVTVSS	high polyreactivity
QVQLVESGGGLVQAGGRLRLSCAATGSTFEVYAMGWYRQAPGKERELVAVINVSDGSTYYADSVKGRFTISRDNAKNTVYLQMNSLKPEDTAVYLCAAYLYNRPYQLTGYYDGYGYWGQGTQVTVSS	low polyreactivity
QVQLVESGGGLVQAGGRLRLSCADSGIIFRAYTIGWYRQATGKERELVAGITSGGSTYYADSVKGRFTISRDNAKNTVYLQMNSLKPEDTAVYYCATYYGRWTPIPYEYWGQGTQVTVSS	high polyreactivity
QVQLVESGGGLVQAGGRLRLSCAPSGGIFNPNVMGGYRQSPGKETELVASITGRGGNTYYADSVKGRFTISRDNAKNTVYLQMNSLKPEDTAVYYCAAAIPHHSRVYYWGQGPQVTVSS	low polyreactivity
QVQLVESGGGLVQAGGRLRLSCGASGIIFVYYTMGWDRQAPGKERELVAAITSGGSTYYADSVKGRFTISRDNAKNTVFLQINSLKPEDTAVYYCAAVGRPPYAGDRGFRGQGTQVTVSS	high polyreactivity
QVQLVESGGGLVQAGGRLRLSCTASGIIFGTYAMGWYRQAPGKERELVAAISSSGVSTYYADSVKGRFTISRDNAKNTVYLQMNSLKPEDTAVYYCAAPLHYGYYYWGQGTQVTVSS	high polyreactivity
QVQLVESGGGLVQAGGRLRLSGAASGLIFTTYAMGWSRQAPGKVRELVAAISSSGDSTYYADSVKGRFTISRDNAKNTVYLQMNSLKPEDTAVYYRAARYYYRGYEFGYWGQGTQVTVSS	high polyreactivity
QVQLVESGGGLVQAGGRLRRICAASGRIYSRYTMGWYRQAPGKERQLVAVITSGGSTYYADSVKGRFTISRDNAKNTVYLQMNSLKPDDTAVYYCNAVRFTYGGYLRRYDYWGHGTQVTVSS	high polyreactivity
QVQLVESGGGLVQAGGRRRLSCAASGSTYNPYPMGWYRQAPGKERELLATITWRGTSTYYADSVKGRFTISRDNAKYTVYLQMNSLKPEDTAVYYGAKGFVYNYPKTYKSYSTYYYWGQGTQVTVSS	high polyreactivity
QVQLVESGGGLVQAGGSDRLSCAASGSIIDYYAMGWYRQAPGKERELVADITVTGDGTYYADSVKGRFTISRDNAKNTVYLQMNSLKPEDTAVYYCAAAGVYYGVRGTTYAYDYWGQGTQVTVSS	low polyreactivity
QVQLVESGGGLVQAGGSFRLSCAASGFTLYGNAMGWSRQAPGNDRELVATIRSTGSTTYADSVKGRFTISRDNAKNTVYLQMNSLKPEDTAVHYCAKVSTYGGRHRWPGSIYDYWGQGTQVTVSS	low polyreactivity
QVQLVESGGGLVQAGGSFRLSCAASGSIFDGYAMGWYRQAPGTERELVAAISSGGDSTYYADSVKGRFTISRDNAKNTVYLQMNSLKPEDTAVYYCNADSLVGHSYDYWGQGTQVTVSS	low polyreactivity
QVQLVESGGGLVQAGGSFRLSCAASGSIFVVYAMGWYRQAPGKERELVAAITSGGSTYYADSVKGRFTISRDNAKNTVYLQMNSLKPEDTAVYYCATTYRDGVYELTTFDYWGQGTQVTVSS	low polyreactivity
QVQLVESGGGLVQAGGSFRLSSAPSGSIFVVYAMGGYIQAPGKERELVAAITSGGSTYYADSVKGRFTISRDNAKNTVYLQMNSLKPEDTAVYYCATTYRDGVYELSTFDYWGQGTQVTVSS	low polyreactivity
QVQLVESGGGLVQAGGSHRFSCAASGFTFGHDTMGWYRQAPGKERELVAAITWRGGTYYADSEKGRFTISRDNAMNTVYLQMNSMKPEDTAVYYCAKRRASRYYWGQGTQVTVSS	high polyreactivity
QVQLVESGGGLVQAGGSHRLICAASGFNFYIYAMGWYRQAPGKERELVAAISWNGGSTYYADSVKGRFTISRDIAKNTVYLQMNSLKPEDTAVYYCAARHYYFYYHGYVKYDYWGQGTQVTVSS	high polyreactivity
QVQLVESGGGLVQAGGSHRLSCAASGFIFRRNAMGWYRQAPGKERELVAAITKSGGSTYYADSVKGRFTISRDNAKNTVYLQMNSLKPEDTAVYYCAAKRQTGQSYYWGQGTQVTVSS	high polyreactivity
QVQLVESGGGLVQAGGSHRLSCAASGFTFIGYPMGWYRQAPGKERELVAAITQSGGSTFYADSVKGRFTISRDNAKNTVYLHMNSLKPEDTAVYYCNAYRKFRYWGHGTQVTVSS	low polyreactivity
QVQLVESGGGLVQAGGSHRLSCAASGIIIEGNVMGWSRQSPGKQSELVAAITSDTSTNYGDSVKGRFTISRDNATNTVYLQMNSLKPEDTGVYYCNAVIGTDYFYSGTAEFYYWGQGTQVTVSS	low polyreactivity
QVQLVESGGGLVQAGGSHRLSCAASGITFPYYAMGCYRQAPVKERELVAAISSSGGSTYYADSVKGRFTISRDNAKNTVYLQMNSLKPEDTAVYYCNKRYVVYPGNYWRYDYWGQGTQVTVSS	high polyreactivity
QVQLVESGGGLVQAGGSHRLSCAASGLIIGYYDMGWYRQAPGQERELVAAITQSSGSTYYADSVKGRFTISRDNAKNTVYLQMNRLKREDTAVYYCARRKWKFADNYKLDYWGQGTQVTVSS	low polyreactivity
